These are literature values, as cited in paper PMC4244080.

This data set concerns the target insulin receptor (Homo sapiens) (UniProt P06213). Put plainly: radioligand binding.
Sequence of UniProt P06213 (P06213 763-1382): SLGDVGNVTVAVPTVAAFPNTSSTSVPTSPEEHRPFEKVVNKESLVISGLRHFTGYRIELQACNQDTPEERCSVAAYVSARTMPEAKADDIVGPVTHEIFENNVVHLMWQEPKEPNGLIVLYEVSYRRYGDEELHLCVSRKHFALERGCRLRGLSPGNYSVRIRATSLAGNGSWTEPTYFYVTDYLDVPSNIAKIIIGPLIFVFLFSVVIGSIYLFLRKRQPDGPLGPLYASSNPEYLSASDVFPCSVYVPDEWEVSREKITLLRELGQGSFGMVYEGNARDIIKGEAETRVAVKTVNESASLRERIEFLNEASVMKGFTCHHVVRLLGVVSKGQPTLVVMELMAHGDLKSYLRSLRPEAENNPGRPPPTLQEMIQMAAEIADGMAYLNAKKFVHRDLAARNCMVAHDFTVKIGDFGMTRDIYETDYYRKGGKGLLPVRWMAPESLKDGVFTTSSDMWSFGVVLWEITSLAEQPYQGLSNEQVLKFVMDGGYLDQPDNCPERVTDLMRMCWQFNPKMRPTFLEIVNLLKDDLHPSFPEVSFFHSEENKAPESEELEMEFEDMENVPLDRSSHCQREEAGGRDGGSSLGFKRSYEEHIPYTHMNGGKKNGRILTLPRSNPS

Sequence of insulin (P01308 90-110): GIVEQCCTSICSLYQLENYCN

In general, Kd refers to the free concentration of one partner at which half of the binding sites on the other are occupied at equilibrium, for simple one-to-one binding. For the substance insulin (from UniProt P01308), the Kd is 0.3 nM.
